From patent publication US20030170730A1, “Assay method, peptides and reagent kits for testing mrp-specific inhibitors” (priority 2000, published 2003)

Tests used:
MDCKII-ΔMRP1 cells = experiment: Immunolocalization of L0 co-expressed with ΔMRP1 in MDCKII monolayers (rescue to plasma membrane); assay type: cell-based; details: pool of puromycin resistant MDCKII-ΔMRP1 cells
Source text: L0 was detected by indirect immunofluorescence with mAb R1 (green color, light signal in the lateral membrane). […] The arrow head indicates the position where the section was made. Nucleic acids were counterstained with propidium iodide (red signal).
For expression of MRP1 variants in MDCKII cells, the L0MDR1 chimera, ΔMRP1, and MRP1Δ(223-232) were inserted as blunt-end fragments into the retroviral vector pCMV-neo as described [Bakos É et al, (1998), see above]. For co-expression experiments the L0 fragment was cloned into the pBabe-Puro-CMV vector (kindly provided by Dr. J. Wijnholds, The Netherlands Cancer Institute, Amsterdam, The Netherlands). This vector was generated by cloning the blunt-ended HindIII fragment from pCMV-neo (containing the CMV early promoter) into the blunt-ended BamHI site of the pBabe-puro vector [Morgenstern J. P., and Land, H. (1990) Nucleic Acids Res. 18, 3587-3596]. Cells were retrovirally-transduced as described before [Evers, R. Kool, M., van Deemter, L., Janssen, H., Calafat, J., Oomen, L. C., Paulusma, C. C., Oude Elferink R. P., Baas, F., Schinkel, A. H., and Borst P. (1998) J. Clin Invest. 101, 1310-1319]. MDCKII cells stably transduced with the pBabe-Puro or pCMV-neo vector were selected for 4-6 days in medium containing puromycin (3 μg/ml) or for 7 days in medium containing G-418 (800 μg/ml), respectively. […]

MRP1 variants = MRP1 variants (Homo sapiens, UniProt P33527); experiment: Vanadate-dependent nucleotide trapping by MRP1 variants in Sf9 membranes; details: L0 peptide co-expressed with ΔMRP1
ΔMRP1 = biological target: T1, ΔMRP1 (Homo sapiens, UniProt P33527); experiment: Restoration of ΔMRP1 transport activity by L0 peptides (vesicular LTC4 / NEM-GS uptake, Sf9 membranes); assay type: biochemical
T1 construct: An N-terminally truncated MRP1 (amino acids 281-1531); made in house; host or cells: baculovirus-infected Sf9 cells, membrane vesicles
T1 sequence (P33527 281-1531, stated change not applied): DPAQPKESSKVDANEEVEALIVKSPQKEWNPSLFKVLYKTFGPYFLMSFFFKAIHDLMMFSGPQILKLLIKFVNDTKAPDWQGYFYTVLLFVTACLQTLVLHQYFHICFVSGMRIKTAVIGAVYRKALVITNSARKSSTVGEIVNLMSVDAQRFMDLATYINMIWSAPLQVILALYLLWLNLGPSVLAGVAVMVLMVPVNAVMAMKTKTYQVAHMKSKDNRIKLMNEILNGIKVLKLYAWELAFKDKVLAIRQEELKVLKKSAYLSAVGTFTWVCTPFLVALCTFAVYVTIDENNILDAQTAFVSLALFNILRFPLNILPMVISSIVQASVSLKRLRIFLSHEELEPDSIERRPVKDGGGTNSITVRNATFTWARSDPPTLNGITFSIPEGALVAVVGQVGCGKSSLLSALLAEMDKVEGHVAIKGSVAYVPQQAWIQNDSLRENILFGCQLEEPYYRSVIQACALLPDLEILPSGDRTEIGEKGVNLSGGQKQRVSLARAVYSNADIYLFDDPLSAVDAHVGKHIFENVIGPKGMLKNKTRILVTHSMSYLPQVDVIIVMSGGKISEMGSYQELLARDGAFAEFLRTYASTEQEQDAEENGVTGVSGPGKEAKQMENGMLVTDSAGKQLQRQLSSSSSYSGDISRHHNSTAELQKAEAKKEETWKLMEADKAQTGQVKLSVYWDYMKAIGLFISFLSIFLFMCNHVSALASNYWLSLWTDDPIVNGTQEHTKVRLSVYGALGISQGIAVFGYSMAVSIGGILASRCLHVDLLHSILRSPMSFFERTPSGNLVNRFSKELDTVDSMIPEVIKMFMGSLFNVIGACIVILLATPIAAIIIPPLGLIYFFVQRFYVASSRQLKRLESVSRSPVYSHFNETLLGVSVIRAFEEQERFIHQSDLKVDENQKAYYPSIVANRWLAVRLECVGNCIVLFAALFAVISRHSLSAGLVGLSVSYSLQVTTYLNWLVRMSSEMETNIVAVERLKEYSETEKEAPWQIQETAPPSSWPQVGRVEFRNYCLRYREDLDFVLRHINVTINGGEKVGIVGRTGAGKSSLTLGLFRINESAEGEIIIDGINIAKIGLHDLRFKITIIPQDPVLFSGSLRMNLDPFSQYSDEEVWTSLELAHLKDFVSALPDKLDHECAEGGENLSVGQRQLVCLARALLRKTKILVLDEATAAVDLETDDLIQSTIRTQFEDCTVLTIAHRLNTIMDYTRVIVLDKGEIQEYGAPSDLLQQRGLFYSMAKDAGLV
Protocol: The obtained pCLTRX-L0 vector was cloned to E. coli BL21 (DE3) cells, which in turn were grown in TYBG antibiotic broth (10 g tryptone, 10 g yeast extract, 4 g glucose, pH 7.2, 100 μg/ml ampicillin, 25 μg/ml kanamycine) at 37° C. When OD(600) exceeded 1.1 cells were pelleted by centrifugation, suspended in M9 medium, the incubated at 28° C. for 30 min. Afterwards, expression was induced by IPTG for 2 hours. When the induction was finished, cells were pelleted by centrifugation and the pellet was washed with 20% sacharose, then suspended in a solution comprising 20% agarose, 10 mM Tris and 0.1 μg/ml lysosyme (pH 7.2) and incubated for 30 min at 4° C. then sonicated. The lysed cells were pelleted by centrifugation (20000 g, 20 min). The so obtained lysate was used in the further experiments, for studying the restoration of the transport activity.
In order to correctly determine the transport function of the different MRP1 proteins, we estimated the relative amount of transport-competent inside-out vesicles in the Sf9 membrane preparations [Bakos É. et al, (1998), see above], and corrected the transport rates according to the relative MRP1 expression levels, as determined by immunoblotting.

B1: L0: amino acids 204-281, representing the N-terminal linker region of MRP1, expressed as a separate peptide (protein, UniProt P33527 204-281, looked up, fragment)
chain: DPNPCPESSASFLSRITFWWITGLIVRGYRQPLEGSDLWSLNKEDTSEQVVPVLVKNWKKECAKTRKQPVKVVYSSKD
modifications: L0 linker region
notes: amino acids 204-281, representing the N-terminal linker region of MRP1, expressed as a separate peptide
- localization of L0 (mAb R1 staining) (MDCKII-ΔMRP1 cells): clear lateral plasma membrane staining
- restoration of nucleotide trapping of ΔMRP1 (MRP1 variants): the full activity was restored
- uptake of LTC4 on co-expression with ΔMRP1 (ΔMRP1; at 50 nM LTC4, Sf9 vesicles): about 90 % of MRP1
- uptake of NEM-GS on co-expression with ΔMRP1 (ΔMRP1; at 50 μM NEM-GS, Sf9 vesicles): about 40 % of MRP1
